Four molecules from patent US20250264455A1 (HELMHOLTZ ZENTRUM M NCHEN DEUTSCHES FORSCHUNGSZENTRUM F R …, published 2025) can be followed below.

Data set [1] concerns the target T1, QtEnc-SpyTag(003) (Bacillus thermotolerans (Quasibacillus …, UniProt A0A0F5HPP7 1-282)).
T1 construct: Q. thermotolerans encapsulin shell monomer with C-terminal SpyTag003; T=4 shell of 240 subunits; expressed in HEK cells; also called QtEnc decorated with SpyTags
Description: TEM and CN-PAGE after co-expression in HEK cells (SpyTag003/SpyCatcher003 isopeptide).

Data set [2] concerns the molecule itself. Kind of data set: native 12% Tris-Glycine gel of purified protein with BODIPY FL C16.
A further data set has as its target T2, LifeAct-emFPv4.
T2 construct: also called emFPv4 hub
Description: Clear Native PAGE of co-expressing HEK293T lysate.

The target in data set [3] is T1, QtEnc-SpyTag(003). Description: TEM, CN-PAGE shift and Western blot after co-expression in HEK cells (SpyTag003/SpyCatcher003 isopeptide). On the technique in general: A western blot detects proteins with antibodies after separation by electrophoresis.

B1: BM3h-SpyCatcher003 (other)
chain: MTIKEMPQPKTFGELKNLPLLNTDKPVQALMKIADELGEIFKFEAPGRVTRYLSSQRLIKEACDESRFDKNLSQALKFVRDFAGDGLFTSWTHEKNWKKAHNILLPSFSQQAMKGYHAMMVDIAVQLVQKWERLNADEHIEVPEDMTRLTLDTIGLCGFNYRFNSFYRDQPHPFITSMVRALDEAMNKLQRANPDDPAYDENKRQFQEDIKVMNDLVDKIIADRKASGEQSDDLLTHMLNGKDPETGEPLDDENIRYQIITFLIAGHETTSGLLSFALYFLVKNPHVLQKAAEEAARVLVDPVPSYKQVKQLKYVGMVLNEALRLWPTAPAFSLYAKEDTVLGGEYPLEKGDELMVLIPQLHRDKTIWGDDVEEFRPERFENPSAIPQHAFKPFGNGQRACIGQQFALHEATLVLGMMLKHFDFEDHTNYELDIKETLTLKPEGFVVKAKSKKIPLPPPPRTGPPPPRVTTLSGLSGEQGPSGDMTTEEDSATHIKFSKRDEDGRELAGATMELRDSSGKTISTWISDGHVKDFYLYPGKYTFVETAAPDGYEVATPIEFTVNEDGQVTVDGEATEGDAHT
notes: Heme domain of cytochrome P450 BM3 fused to SpyCatcher003; also called SpyCatcher-Bm3h
On to B1, for which, in the data set with QtEnc-SpyTag(003) [1], the binding result is “binds”.

B2: BFabp-FLAG (other)
chain: VEAFCATWKLTNSQNFDEYMKALGVGFATRQVGNVTKPTVIISQEGDKVVIRTLSTFKNTEISFQLGEEFDETTADDRNCKSVVSLDGDKLVHIQKWDGKETNFVREIKDGKMVMTLTFGDVVAVRHYEKAGSGDYKDDDDK
notes: Purified over the FLAG tag
For B2, the binding result in data set [2] is “binds”.

B3: BFabp-αMoon-Tag (other)
chain: MEVQLVESGGGLVQPGGSLRLSCAASGSISSVDVMSWYRQAPGKQRELVAFITDRGRTNYKVSVKGRFTISRDNSKNMVYLQMNSLKPEDTADYLCRAESRTSWSSPSPLDVWGRGTQVTVSSGGTGGSVEAFCATWKLTNSQNFDEYMKALGVGFATRQVGNVTKPTVIISQEGDKVVIRTLSTFKNTEISFQLGEEFDETTADDRNCKSVVSLDGDKLVHIQKWDGKETNFVREIKDGKMVMTLTFGDVVAVRHYEKA
notes: also called B-Fabp Anti-Moon-Tag
Consider B3, for which, in the data set with LifeAct-emFPv4, the binding result is reported as “binds”.

B4: B-FABP-SpyCatcher003 (other)
chain: MVEAFCATWKLTNSQNFDEYMKALGVGFATRQVGNVTKPTVIISQEGDKVVIRTLSTFKNTEISFQLGEEFDETTADDRNCKSVVSLDGDKLVHIQKWDGKETNFVREIKDGKMVMTLTFGDVVAVRHYEKAPPPPRTGPPPPRVTTLSGLSGEQGPSGDMTTEEDSATHIKFSKRDEDGRELAGATMELRDSSGKTISTWISDGHVKDFYLYPGKYTFVETAAPDGYEVATPIEFTVNEDGQVTVDGEATEGDAHT
notes: also called B-FABP fused via SpyCatcher003
Turning to B4, the binding result with QtEnc-SpyTag(003) [3] is given as “binds”.
